What was measured:
[1] = target: composite αS/N-protein fibrils (fibril strain s1, from plateau p1) (human | SARS-CoV-2) (UniProt P37840); test: co-sedimentation
[2] = target: human alpha-synuclein wild-type (human) (UniProt P37840); test: co-sedimentation

human alpha-synuclein wild-type (from UniProt P37840 1-140) (natural protein)
αS aggregated into fibrils at p1 [1]: 8 µM | αS aggregated into fibrils at p2 [2]: 24 µM

From article doi:10.1101/2023.03.13.532385
